1 molecule from publication PMC9496920, “Anti-PTK7 Monoclonal Antibodies Inhibit Angiogenesis by Suppressing PTK7 Function” (Cancers, 2022) can be followed below.

The target of this test is KDR-HA (human KDR with a C-terminal HA tag) (human, UniProt P35968 20-1356). Briefly: cell-based or functional assay.
KDR-HA (human KDR with a C-terminal HA tag), sequence (P35968 20-1356): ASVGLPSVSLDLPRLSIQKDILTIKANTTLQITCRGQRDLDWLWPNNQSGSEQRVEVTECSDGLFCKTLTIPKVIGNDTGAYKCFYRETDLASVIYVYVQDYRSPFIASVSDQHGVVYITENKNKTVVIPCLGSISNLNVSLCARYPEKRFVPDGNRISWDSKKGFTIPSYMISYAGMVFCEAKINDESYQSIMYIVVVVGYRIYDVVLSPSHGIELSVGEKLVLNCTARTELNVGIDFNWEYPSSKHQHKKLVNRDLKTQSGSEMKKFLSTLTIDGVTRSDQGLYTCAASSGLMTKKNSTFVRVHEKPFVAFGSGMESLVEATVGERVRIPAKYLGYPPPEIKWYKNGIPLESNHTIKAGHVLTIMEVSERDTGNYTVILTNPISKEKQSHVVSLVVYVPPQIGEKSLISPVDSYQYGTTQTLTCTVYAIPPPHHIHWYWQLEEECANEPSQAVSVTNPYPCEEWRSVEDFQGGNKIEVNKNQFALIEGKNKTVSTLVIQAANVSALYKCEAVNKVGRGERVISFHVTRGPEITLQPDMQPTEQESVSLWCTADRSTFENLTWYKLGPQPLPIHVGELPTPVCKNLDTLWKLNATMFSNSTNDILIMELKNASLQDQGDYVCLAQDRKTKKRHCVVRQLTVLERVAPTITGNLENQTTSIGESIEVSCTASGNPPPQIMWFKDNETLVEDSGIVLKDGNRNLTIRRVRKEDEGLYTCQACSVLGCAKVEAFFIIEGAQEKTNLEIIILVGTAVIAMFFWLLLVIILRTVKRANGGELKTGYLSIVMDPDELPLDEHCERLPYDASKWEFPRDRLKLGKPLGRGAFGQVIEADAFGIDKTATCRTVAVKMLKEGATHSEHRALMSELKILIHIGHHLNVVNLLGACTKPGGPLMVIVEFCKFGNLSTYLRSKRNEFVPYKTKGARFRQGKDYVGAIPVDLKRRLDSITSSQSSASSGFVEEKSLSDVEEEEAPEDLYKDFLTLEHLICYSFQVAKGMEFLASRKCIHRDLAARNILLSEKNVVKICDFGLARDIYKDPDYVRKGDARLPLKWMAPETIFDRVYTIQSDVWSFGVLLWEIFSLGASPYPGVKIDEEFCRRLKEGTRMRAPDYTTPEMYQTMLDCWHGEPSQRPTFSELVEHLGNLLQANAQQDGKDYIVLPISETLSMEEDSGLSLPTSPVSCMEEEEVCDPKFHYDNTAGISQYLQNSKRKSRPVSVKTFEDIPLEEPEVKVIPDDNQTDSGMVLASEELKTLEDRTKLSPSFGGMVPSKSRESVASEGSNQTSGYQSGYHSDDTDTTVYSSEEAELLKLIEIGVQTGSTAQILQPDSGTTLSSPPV

B1: PTK7-FLAG (human PTK7 with a C-terminal FLAG tag) (receptor, UniProt Q13308 31-1070, looked up)
chain: AIVFIKQPSSQDALQGRRALLRCEVEAPGPVHVYWLLDGAPVQDTERRFAQGSSLSFAAVDRLQDSGTFQCVARDDVTGEEARSANASFNIKWIEAGPVVLKHPASEAEIQPQTQVTLRCHIDGHPRPTYQWFRDGTPLSDGQSNHTVSSKERNLTLRPAGPEHSGLYSCCAHSAFGQACSSQNFTLSIADESFARVVLAPQDVVVARYEEAMFHCQFSAQPPPSLQWLFEDETPITNRSRPPHLRRATVFANGSLLLTQVRPRNAGIYRCIGQGQRGPPIILEATLHLAEIEDMPLFEPRVFTAGSEERVTCLPPKGLPEPSVWWEHAGVRLPTHGRVYQKGHELVLANIAESDAGVYTCHAANLAGQRRQDVNITVATVPSWLKKPQDSQLEEGKPGYLDCLTQATPKPTVVWYRNQMLISEDSRFEVFKNGTLRINSVEVYDGTWYRCMSSTPAGSIEAQARVQVLEKLKFTPPPQPQQCMEFDKEATVPCSATGREKPTIKWERADGSSLPEWVTDNAGTLHFARVTRDDAGNYTCIASNGPQGQIRAHVQLTVAVFITFKVEPERTTVYQGHTALLQCEAQGDPKPLIQWKGKDRILDPTKLGPRMHIFQNGSLVIHDVAPEDSGRYTCIAGNSCNIKHTEAPLYVVDKPVPEESEGPGSPPPYKMIQTIGLSVGAAVAYIIAVLGLMFYCKKRCKAKRLQKQPEGEEPEMECLNGGPLQNGQPSAEIQEEVALTSLGSGPAATNKRHSTSDKMHFPRSSLQPITTLGKSEFGEVFLAKAQGLEEGVAETLVLVKSLQSKDEQQQLDFRRELEMFGKLNHANVVRLLGLCREAEPHYMVLEYVDLGDLKQFLRISKSKDEKLKSQPLSTKQKVALCTQVALGMEHLSNNRFVHKDLAARNCLVSAQRQVKVSALGLSKDVYNSEYYHFRQAWVPLRWMSPEAILEGDFSTKSDVWAFGVLMWEVFTHGEMPHGGQADDEVLADLQAGKARLPQPEGCPSKLYRLMQRCWALSPKDRPSFSEIASALGDSTVDSKP
For B1, the “VEGF-induced phosphorylation of KDR (Tyr1175) in HUVECs pre-treated with mAb-32 (10 ug/mL), Western blot, relative to VEGF alone” value was 53.2 % of VEGF-alone control and the “VEGF-induced phosphorylation of KDR (Tyr1175) in HUVECs pre-treated with mAb-43 (10 ug/mL), Western blot, relative to VEGF alone” value was 56.9 % of VEGF-alone control.
